Here are results for two molecules from paper PMC8336837, “Structure of the human C9orf72-SMCR8 complex reveals a multivalent protein interaction architecture” (PLoS Biology, 2021).

The target in experiment [1] is T1, full-length C9orf72-SMCR8 complex (GST-tagged) (human, UniProt Q96LT7 1-481; Q8TEV9 1-937).
T1 construct: C9orf72, human, the longer isoform (481 AA); codon-optimised synthetic open reading frame; SMCR8, human, from a human cDNA library; GST on C9orf72 is stated for the GST pull-down; also called GST-tagged C9orf72-SMCR8; source: Sf-9 insect cells, the two proteins co-expressed, purified (Strep-Tactin, size-exclusion chromatography); not shown: GST, N-terminal, kept
T1 sequence (looked up) 1: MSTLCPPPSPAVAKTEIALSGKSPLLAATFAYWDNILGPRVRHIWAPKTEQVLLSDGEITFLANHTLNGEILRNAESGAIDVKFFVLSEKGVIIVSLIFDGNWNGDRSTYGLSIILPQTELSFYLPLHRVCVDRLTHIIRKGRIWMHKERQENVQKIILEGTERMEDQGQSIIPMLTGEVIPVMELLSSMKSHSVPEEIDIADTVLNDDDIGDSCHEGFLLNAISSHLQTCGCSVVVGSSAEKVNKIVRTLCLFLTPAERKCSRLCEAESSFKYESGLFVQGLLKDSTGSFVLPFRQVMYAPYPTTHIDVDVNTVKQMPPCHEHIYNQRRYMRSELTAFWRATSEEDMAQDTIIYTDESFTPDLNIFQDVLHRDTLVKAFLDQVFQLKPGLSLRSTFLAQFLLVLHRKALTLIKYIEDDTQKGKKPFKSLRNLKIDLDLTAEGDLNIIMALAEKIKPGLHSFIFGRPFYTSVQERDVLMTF
T1 sequence (looked up) 2: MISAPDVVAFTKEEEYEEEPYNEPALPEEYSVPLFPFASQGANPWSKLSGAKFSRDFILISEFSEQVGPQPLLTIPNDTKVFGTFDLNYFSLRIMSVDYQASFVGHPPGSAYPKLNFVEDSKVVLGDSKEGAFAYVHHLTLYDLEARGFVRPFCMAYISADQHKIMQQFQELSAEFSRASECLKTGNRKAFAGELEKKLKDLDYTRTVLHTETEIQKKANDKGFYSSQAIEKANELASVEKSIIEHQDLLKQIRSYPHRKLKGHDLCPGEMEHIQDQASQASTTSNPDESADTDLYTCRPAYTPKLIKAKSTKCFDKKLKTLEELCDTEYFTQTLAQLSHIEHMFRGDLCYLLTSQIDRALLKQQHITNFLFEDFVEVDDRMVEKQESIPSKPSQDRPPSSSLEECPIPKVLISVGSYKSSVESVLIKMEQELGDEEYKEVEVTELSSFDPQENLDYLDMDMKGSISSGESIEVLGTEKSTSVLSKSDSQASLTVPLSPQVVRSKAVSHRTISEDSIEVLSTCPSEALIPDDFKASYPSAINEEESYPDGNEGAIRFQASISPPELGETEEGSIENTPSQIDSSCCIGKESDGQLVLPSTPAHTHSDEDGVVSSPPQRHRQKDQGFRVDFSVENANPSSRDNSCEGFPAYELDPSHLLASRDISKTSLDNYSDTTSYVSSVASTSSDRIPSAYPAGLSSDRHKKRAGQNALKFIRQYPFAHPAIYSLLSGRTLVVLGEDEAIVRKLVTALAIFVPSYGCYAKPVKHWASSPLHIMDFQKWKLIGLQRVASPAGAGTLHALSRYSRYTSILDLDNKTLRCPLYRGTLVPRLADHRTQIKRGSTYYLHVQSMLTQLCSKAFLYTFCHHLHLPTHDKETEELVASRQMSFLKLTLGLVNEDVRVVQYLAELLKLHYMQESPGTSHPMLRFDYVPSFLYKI
In words: SEC; reconstitution of the trimeric complex from purified C9orf72-SMCR8 and WDR41; Superose 6 10/300 GL, 20 mM HEPES pH 8.0, 150 mM NaCl, 2 mM DTT, 3% glycerol. Conditions: both partners purified. (In gel filtration, larger molecules generally elute earlier.)

The next experiment concerns the target T2, SMCR8 (full-length) (human, UniProt Q8TEV9 1-937).
T2 construct: SMCR8, human, open reading frame amplified from a human cDNA library; residues 1-937; also called SMCR8 Fl; source: Sf-9 insect cells, co-expressed with C9orf72, purified (Strep-Tactin, size-exclusion chromatography)
T2 sequence (looked up): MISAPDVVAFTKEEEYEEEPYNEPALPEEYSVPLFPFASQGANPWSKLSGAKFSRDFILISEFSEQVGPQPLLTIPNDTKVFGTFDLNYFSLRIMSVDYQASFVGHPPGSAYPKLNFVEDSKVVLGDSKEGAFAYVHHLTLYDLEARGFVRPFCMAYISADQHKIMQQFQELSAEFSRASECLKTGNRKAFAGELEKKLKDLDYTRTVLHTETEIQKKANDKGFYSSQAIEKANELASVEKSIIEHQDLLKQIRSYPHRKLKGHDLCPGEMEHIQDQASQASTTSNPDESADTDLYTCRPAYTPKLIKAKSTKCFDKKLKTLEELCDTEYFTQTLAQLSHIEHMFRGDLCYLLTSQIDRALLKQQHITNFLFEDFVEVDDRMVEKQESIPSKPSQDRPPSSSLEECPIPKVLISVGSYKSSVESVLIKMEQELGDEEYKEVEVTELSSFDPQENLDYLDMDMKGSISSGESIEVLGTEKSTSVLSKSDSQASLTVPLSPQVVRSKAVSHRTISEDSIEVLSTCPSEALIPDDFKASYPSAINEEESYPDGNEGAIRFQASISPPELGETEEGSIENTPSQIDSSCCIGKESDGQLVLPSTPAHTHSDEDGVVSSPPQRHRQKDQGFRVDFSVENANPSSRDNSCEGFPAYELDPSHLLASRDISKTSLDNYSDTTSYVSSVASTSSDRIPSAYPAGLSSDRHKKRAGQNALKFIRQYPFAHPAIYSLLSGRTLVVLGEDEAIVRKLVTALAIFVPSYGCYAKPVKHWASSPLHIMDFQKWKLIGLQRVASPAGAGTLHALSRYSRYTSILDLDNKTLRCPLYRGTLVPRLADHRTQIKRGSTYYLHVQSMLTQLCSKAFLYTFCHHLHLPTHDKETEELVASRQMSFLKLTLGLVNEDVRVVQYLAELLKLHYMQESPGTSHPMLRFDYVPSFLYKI
In words: cross-linking; DSSO (0.5 to 10 mM, 1 hour at room temperature) on C9orf72-SMCR8 complex mixed with WDR41 in equimolar ratio (200 pmol) in 20 mM HEPES pH 8.0, 150 mM NaCl, 2 mM DTT, 3% glycerol; mass spectrometry after digestion. To be noted: both partners purified.

The target of experiment [2] is T3, Strep-SMCR8ΔCC (SMCR8 mutant lacking its coiled-coil region) (human, UniProt Q8TEV9 1-937, missing residues 181 to 250).
T3 construct: SMCR8, human, lacking the coiled-coil region (missing residues 181 to 250); Cloned into pOPINE-3C-eGFP; source: HEK293T, transfected together with C9orf72, in lysate; not shown: twin-strep, N-terminal, kept
T3 sequence (looked up): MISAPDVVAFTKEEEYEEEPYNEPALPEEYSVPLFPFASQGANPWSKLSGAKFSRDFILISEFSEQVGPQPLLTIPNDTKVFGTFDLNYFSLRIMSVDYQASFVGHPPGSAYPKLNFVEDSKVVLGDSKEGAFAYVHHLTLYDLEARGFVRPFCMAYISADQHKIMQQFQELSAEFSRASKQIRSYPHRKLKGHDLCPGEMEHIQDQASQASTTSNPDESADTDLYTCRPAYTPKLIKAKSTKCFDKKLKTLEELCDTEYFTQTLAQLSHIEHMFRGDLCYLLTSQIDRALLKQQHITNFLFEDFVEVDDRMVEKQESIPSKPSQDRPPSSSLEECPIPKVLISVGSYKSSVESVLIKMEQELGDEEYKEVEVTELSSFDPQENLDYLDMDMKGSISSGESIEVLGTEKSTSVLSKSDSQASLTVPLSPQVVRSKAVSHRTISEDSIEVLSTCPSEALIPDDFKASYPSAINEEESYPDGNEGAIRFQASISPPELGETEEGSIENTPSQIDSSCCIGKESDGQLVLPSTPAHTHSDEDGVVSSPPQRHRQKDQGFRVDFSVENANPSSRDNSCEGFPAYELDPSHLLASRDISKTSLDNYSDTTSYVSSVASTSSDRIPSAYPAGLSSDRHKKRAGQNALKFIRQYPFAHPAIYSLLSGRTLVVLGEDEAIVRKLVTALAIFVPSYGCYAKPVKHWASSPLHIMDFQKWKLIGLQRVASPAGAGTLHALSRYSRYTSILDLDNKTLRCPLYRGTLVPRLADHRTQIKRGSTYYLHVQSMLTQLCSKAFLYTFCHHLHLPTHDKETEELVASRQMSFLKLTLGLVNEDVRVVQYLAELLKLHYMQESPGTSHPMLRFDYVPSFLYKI
In words: affinity purification with mass spectrometry; Strep-SMCR8 (WT or ΔCC) and C9orf72 transfected into HEK293T; cells fed or starved 90 minutes (amino acid- and glucose-free media) before lysis; magnetic Strep-Tactin beads; label-free quantification (LFQ), triplicates. To be noted: partners not purified.

B1: WDR41 (full-length) (natural protein, human, UniProt Q9HAD4 1-459, looked up)
chain: MLRWLIGGGREPQGLAEKSPLQTIGEEQTQNPYTELLVLKAHHDIVRFLVQLDDYRFASAGDDGIVVVWNAQTGEKLLELNGHTQKITAIITFPSLESCEEKNQLILTASADRTVIVWDGDTTRQVQRISCFQSTVKCLTVLQRLDVWLSGGNDLCVWNRKLDLLCKTSHLSDTGISALVEIPKNCVVAAVGKELIIFRLVAPTEGSLEWDILEVKRLLDHQDNILSLINVNDLSFVTGSHVGELIIWDALDWTMQAYERNFWDPSPQLDTQQEIKLCQKSNDISIHHFTCDEENVFAAVGRGLYVYSLQMKRVIACQKTAHDSNVLHVARLPNRQLISCSEDGSVRIWELREKQQLAAEPVPTGFFNMWGFGRVSKQASQPVKKQQENATSCSLELIGDLIGHSSSVEMFLYFEDHGLVTCSADHLIILWKNGERESGLRSLRLFQKLEENGDLYLAV
notes: WDR41, human, open reading frame amplified from a human cDNA library; also called WDR41 Fl; source: Sf-9 insect cells, expressed individually, purified (Strep-Tactin, size-exclusion chromatography)
On to B1, for which the binding result (in experiment [1]; with SMCR8 (full-length)) was “binds” throughout.

B2: WDR41 (in HEK293T cells) (natural protein, human (endogenous in HEK293T), UniProt Q9HAD4 1-459, looked up)
chain: MLRWLIGGGREPQGLAEKSPLQTIGEEQTQNPYTELLVLKAHHDIVRFLVQLDDYRFASAGDDGIVVVWNAQTGEKLLELNGHTQKITAIITFPSLESCEEKNQLILTASADRTVIVWDGDTTRQVQRISCFQSTVKCLTVLQRLDVWLSGGNDLCVWNRKLDLLCKTSHLSDTGISALVEIPKNCVVAAVGKELIIFRLVAPTEGSLEWDILEVKRLLDHQDNILSLINVNDLSFVTGSHVGELIIWDALDWTMQAYERNFWDPSPQLDTQQEIKLCQKSNDISIHHFTCDEENVFAAVGRGLYVYSLQMKRVIACQKTAHDSNVLHVARLPNRQLISCSEDGSVRIWELREKQQLAAEPVPTGFFNMWGFGRVSKQASQPVKKQQENATSCSLELIGDLIGHSSSVEMFLYFEDHGLVTCSADHLIILWKNGERESGLRSLRLFQKLEENGDLYLAV
notes: WDR41, found by mass spectrometry in Strep-Tactin purifications from HEK293T cells (only SMCR8 and C9orf72 plasmids were transfected); source: endogenous, HEK293T lysate
In the case of B2, in experiment [2], the “fold increase of WDR41 (LFQ) against SMCR8 WT fed, fed cells” value is ~4.5 fold and the “fold increase of WDR41 (LFQ) against SMCR8 WT fed, starved cells” value was ~5.5 fold.
